Tests used:
Assay in all cases: two-hybrid library CCNG1;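 further: natural log of median RNA to DNA barcode read ratio; higher means stronger binding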
P4bHq = biological target: T1, P4bHq
T1 chain: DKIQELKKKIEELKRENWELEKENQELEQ

P5bHq = biological target: T2, P5bHq
T2 chain: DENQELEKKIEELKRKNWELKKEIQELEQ

P6bHq = biological target: T3, P6bHq
T3 chain: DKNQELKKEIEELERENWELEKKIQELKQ

P7bHq = biological target: T4, P7bHq
T4 chain: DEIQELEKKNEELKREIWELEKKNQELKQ

P8bHq = biological target: T5, P8bHq
T5 chain: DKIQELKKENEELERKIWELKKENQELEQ

P9bHq = biological target: T6, P9bHq
T6 chain: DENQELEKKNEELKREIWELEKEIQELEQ

4H2473-bN = biological target: T7, 4H2473-bN
T7 chain: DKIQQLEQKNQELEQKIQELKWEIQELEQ

4H2503-bN = biological target: T8, 4H2503-bN
T8 chain: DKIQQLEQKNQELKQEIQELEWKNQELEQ

4H2588-bN = biological target: T9, 4H2588-bN
T9 chain: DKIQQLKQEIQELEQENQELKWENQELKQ

4H2673-bH = biological target: T10, 4H2673-bH
T10 chain: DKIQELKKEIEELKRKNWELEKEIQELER

4H2692-bN = biological target: T11, 4H2692-bN
T11 chain: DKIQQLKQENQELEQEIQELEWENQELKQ

4H2717-bN = biological target: T12, 4H2717-bN
T12 chain: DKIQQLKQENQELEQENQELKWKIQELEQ

4H2839-bN = biological target: T13, 4H2839-bN
T13 chain: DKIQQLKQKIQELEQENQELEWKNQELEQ

4H2915-bN = biological target: T14, 4H2915-bN
T14 chain: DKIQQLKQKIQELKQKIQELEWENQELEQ

4H3057-bN = biological target: T15, 4H3057-bN
T15 chain: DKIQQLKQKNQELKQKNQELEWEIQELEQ

4H319-bN = biological target: T16, 4H319-bN
T16 chain: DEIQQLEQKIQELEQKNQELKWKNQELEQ

4H3277-bN = biological target: T17, 4H3277-bN
T17 chain: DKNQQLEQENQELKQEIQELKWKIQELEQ

4H348-bN = biological target: T18, 4H348-bN
T18 chain: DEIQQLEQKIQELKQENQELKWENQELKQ

4H40-bN = biological target: T19, 4H40-bN
T19 chain: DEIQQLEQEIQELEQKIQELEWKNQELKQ

4H477-bN = biological target: T20, 4H477-bN
T20 chain: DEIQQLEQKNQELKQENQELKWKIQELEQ

4H492-bN = biological target: T21, 4H492-bN
T21 chain: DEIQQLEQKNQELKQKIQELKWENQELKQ

4H741-bN = biological target: T22, 4H741-bN
T22 chain: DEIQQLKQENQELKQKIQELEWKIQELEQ

In the case of DKIQELKKKIEELKRENWELEKENQELEQ [P4bHq], the interaction score (P4bHq) is reported as -0.613, the interaction score (P5bHq) is reported as -1.27 and the interaction score (P6bHq) is reported as -0.00957. The interaction score (P7bHq) was -1.11, the interaction score (P8bHq) was -0.273 and the interaction score (P9bHq) was -0.875.

DKIQQLEQKNQELEQKIQELKWEIQELEQ [4H2473-bN] was tested, and the interaction score (4H2473-bN) was 0.273, the interaction score (4H2503-bN) was -1.11 and the interaction score (4H2588-bN) was -1.58. It also gave an interaction score (4H2673-bH) of 0.46, an interaction score (4H2692-bN) of -0.666 and an interaction score (4H2717-bN) of -2.13. For the same binder, the interaction score (4H2839-bN) was -1.21, the interaction score (4H2915-bN) was 0.258 and the interaction score (4H3057-bN) was -0.442. The interaction score (4H319-bN) was -0.961, the interaction score (4H3277-bN) was -1.47 and the interaction score (4H348-bN) was -0.231. The interaction score (4H40-bN) was -0.598, the interaction score (4H477-bN) was -0.81 and the interaction score (4H492-bN) was -0.992. The interaction score (4H741-bN) was -1.72.

— publication PMC10397247
